Results as given in patent publication US20190134153A1, “IMMUNOMODULATORY EFFECT OF INHALED KINASE INHIBITOR PEPTIDES IN LUNG” (MOERAE MATRIX, INC., priority 2017, published 2019).

How the values were obtained:
Assay in all cases: Kinase Profiling Assay
Format in all cases: biochemical
Details in all cases: 100 μM
[1] = biological target: Abl(Y253F)(h) (Homo sapiens, UniProt P00519, Y253F)
[2] = biological target: T1, PKG1β(h) (Homo sapiens, UniProt Q13976)
T1 sequence (Q13976 1-686 isoform Q13976-2): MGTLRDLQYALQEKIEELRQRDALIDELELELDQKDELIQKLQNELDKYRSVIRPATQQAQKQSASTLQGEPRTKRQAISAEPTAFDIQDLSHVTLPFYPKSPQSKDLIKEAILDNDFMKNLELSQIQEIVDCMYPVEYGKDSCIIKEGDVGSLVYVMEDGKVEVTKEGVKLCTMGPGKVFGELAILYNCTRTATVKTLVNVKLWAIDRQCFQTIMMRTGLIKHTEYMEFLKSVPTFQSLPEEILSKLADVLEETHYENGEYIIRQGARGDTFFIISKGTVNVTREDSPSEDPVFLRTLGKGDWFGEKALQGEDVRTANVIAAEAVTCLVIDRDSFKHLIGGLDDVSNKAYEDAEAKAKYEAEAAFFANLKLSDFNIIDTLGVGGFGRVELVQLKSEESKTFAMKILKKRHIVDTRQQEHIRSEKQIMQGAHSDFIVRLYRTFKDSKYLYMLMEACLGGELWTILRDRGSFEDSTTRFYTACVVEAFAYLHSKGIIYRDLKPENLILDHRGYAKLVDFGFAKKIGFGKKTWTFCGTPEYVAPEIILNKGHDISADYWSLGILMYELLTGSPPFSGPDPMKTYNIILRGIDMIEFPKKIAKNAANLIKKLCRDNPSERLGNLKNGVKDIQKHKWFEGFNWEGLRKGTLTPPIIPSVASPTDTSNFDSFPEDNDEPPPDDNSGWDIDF

[3] = biological target: PKCβI(h) (Homo sapiens, UniProt P05771)
[4] = biological target: CHK2(h) (Homo sapiens, UniProt O96017)
[5] = biological target: T2, Src(1-530)(h) (Homo sapiens, UniProt P12931)
T2 construct: Src(1-530)(h)

[6] = biological target: CDK7/cyclinH/MAT1(h) (Homo sapiens, UniProt P50613)
[7] = biological target: CDK2/cyclinA(h) (Homo sapiens, UniProt P24941)
[8] = biological target: AMPKα2(h) (Homo sapiens, UniProt P54646)
[9] = biological target: STK33(h) (Homo sapiens, UniProt Q9BYT3)
[10] = biological target: GSK3α(h) (Homo sapiens, UniProt P49840)
[11] = biological target: PKCγ(h) (Homo sapiens, UniProt P05129)
[12] = biological target: T3, Rse(h) (Homo sapiens, UniProt Q06418)
T3 sequence (Q06418 41-890): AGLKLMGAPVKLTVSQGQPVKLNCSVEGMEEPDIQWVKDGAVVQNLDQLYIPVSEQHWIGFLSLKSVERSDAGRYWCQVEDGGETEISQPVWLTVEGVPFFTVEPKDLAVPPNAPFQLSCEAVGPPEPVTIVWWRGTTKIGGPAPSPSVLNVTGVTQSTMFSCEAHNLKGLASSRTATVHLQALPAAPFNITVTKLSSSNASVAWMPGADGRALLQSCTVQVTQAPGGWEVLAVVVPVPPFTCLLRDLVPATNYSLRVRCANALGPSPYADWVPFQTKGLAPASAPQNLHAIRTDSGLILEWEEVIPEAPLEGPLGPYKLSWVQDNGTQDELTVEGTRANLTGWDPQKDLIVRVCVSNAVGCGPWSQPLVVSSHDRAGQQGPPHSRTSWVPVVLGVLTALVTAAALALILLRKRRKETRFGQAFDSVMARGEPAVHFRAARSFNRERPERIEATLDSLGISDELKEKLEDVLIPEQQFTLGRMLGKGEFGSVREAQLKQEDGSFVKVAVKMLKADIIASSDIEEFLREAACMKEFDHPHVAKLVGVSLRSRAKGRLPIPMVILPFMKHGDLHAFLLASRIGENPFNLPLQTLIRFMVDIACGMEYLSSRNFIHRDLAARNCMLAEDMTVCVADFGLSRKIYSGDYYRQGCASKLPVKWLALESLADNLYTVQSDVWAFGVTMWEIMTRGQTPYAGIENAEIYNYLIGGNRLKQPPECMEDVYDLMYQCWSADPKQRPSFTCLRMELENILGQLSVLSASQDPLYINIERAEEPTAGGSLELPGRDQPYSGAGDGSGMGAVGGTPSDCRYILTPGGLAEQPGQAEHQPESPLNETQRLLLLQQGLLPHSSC

[13] = biological target: T4, Bmx(h) (Homo sapiens, UniProt P51813)
T4 sequence (P51813 1-675): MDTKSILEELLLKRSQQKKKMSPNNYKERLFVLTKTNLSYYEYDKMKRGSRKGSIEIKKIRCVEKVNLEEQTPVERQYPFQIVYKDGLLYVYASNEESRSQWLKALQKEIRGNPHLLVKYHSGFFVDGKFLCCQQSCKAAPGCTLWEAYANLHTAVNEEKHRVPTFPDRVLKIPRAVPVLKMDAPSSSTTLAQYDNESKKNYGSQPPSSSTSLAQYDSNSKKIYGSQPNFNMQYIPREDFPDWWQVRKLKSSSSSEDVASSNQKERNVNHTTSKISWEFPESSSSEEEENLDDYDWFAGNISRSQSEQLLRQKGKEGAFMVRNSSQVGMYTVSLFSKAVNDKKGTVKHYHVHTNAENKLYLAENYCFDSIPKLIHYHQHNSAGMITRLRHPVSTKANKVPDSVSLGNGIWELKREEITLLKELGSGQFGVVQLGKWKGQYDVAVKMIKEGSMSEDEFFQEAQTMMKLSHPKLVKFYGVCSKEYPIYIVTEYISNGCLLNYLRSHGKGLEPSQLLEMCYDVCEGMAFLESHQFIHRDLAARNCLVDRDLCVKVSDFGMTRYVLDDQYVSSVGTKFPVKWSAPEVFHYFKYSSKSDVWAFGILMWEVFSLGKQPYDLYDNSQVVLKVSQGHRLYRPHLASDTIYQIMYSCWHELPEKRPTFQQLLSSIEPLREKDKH

Sequence of GSK3α(h) (P49840 whole entry): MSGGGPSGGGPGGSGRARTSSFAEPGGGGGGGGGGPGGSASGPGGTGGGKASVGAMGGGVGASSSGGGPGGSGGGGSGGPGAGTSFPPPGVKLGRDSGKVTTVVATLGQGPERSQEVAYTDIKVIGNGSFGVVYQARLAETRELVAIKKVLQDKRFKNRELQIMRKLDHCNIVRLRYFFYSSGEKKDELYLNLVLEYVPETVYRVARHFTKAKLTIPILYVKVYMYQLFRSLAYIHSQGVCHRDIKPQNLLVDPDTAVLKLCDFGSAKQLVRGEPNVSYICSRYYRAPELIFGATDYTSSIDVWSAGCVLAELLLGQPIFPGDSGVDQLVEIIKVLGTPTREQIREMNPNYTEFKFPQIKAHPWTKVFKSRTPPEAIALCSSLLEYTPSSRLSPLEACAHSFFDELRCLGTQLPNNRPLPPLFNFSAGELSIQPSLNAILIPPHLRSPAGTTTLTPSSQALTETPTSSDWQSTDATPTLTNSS
Sequence of CHK2(h) (O96017 whole entry): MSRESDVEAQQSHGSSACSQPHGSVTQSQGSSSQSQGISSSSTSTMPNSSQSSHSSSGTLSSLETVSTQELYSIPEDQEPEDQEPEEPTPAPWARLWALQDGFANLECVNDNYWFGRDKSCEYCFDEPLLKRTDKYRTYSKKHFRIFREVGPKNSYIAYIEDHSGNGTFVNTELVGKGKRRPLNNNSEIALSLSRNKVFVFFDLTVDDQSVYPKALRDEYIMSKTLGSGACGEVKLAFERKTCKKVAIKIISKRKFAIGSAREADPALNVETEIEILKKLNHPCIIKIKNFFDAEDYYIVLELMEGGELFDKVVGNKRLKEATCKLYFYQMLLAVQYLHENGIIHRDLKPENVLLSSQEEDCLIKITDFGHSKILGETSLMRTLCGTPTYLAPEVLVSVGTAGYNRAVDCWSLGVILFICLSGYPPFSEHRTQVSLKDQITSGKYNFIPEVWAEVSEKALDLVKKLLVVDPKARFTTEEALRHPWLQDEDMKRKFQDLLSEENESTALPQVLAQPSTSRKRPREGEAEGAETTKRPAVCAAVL
Sequence of AMPKα2(h) (P54646 whole entry): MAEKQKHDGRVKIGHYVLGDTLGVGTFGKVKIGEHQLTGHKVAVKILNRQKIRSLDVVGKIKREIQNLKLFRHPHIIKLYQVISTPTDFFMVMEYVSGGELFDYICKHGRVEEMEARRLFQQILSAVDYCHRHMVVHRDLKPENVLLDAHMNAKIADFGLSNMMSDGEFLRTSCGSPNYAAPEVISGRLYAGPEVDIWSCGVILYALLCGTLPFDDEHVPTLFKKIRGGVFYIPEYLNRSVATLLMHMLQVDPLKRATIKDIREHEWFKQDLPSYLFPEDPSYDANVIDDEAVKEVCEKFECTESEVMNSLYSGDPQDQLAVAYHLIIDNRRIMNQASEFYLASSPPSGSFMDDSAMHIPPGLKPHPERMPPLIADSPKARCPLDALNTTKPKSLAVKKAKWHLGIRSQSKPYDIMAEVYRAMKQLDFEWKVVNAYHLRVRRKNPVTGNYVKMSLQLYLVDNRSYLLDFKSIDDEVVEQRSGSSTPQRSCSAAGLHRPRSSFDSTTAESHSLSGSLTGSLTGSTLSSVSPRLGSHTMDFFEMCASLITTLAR
Sequence of AMPKα2(h) (Q9Y478 whole entry partner): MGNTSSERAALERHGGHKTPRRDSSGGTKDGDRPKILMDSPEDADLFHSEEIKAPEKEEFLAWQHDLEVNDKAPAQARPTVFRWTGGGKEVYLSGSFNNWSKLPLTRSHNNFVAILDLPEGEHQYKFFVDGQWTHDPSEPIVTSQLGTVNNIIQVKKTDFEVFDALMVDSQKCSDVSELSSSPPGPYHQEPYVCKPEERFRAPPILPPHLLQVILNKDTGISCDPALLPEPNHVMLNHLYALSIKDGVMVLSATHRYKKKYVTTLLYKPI
Sequence of AMPKα2(h) (P54619 whole entry partner): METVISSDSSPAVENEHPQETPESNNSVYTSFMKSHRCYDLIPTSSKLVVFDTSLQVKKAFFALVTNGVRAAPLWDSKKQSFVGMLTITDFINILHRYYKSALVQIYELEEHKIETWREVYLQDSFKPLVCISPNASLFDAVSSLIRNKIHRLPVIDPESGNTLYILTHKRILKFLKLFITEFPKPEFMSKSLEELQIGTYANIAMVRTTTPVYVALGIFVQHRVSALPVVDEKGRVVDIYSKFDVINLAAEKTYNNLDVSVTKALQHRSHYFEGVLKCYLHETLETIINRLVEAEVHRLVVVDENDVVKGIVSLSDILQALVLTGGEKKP
Sequence of STK33(h) (Q9BYT3 whole entry): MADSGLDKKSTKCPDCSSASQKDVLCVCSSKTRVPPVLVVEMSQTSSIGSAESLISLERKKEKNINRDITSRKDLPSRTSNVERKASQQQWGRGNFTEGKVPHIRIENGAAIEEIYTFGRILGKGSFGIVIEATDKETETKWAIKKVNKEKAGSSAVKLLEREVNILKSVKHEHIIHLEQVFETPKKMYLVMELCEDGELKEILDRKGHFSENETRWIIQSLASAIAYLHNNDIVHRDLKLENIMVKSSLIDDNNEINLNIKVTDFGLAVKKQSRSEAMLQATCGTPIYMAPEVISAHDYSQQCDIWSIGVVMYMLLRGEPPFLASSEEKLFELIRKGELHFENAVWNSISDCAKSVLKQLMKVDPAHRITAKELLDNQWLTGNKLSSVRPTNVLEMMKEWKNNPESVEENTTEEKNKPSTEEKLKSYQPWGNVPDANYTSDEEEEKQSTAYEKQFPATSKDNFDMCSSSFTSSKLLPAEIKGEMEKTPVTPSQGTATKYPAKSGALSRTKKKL
Sequence of PKCβI(h) (P05771 whole entry): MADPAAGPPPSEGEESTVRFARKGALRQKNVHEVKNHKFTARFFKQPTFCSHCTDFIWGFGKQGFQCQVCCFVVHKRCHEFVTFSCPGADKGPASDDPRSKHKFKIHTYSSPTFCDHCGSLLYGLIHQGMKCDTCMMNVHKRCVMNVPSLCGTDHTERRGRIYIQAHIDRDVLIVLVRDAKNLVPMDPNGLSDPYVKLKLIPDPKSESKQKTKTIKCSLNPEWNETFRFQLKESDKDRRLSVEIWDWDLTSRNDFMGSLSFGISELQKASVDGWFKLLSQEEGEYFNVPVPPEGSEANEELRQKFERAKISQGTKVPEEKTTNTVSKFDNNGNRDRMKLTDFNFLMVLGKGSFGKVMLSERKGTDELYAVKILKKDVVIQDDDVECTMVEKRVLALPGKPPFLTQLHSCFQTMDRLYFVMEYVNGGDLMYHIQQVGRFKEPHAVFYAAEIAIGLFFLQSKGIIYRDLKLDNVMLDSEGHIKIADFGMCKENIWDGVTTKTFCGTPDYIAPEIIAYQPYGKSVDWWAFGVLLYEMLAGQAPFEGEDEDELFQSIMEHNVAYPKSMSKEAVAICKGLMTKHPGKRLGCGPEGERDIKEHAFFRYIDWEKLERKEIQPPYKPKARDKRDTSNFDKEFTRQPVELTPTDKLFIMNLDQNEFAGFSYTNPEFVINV

| Sequence | % activity [1] [%] | % activity [2] [%] | % activity [3] [%] | % activity [4] [%] | % activity [5] [%] | % activity [6] [%] | % activity [7] [%] | % activity [8] [%] | % activity [9] [%] | % activity [10] [%] | % activity [11] [%] | % activity [12] [%] | % activity [13] [%] |
| --- | --- | --- | --- | --- | --- | --- | --- | --- | --- | --- | --- | --- | --- |
| FAKLAARLYRKALARQLGVAA [MMI-0300] | 86 | 50 | 78 | 66 | 23 | 65 | 86 | 54 | 45 | 157 | 89 | 88 | – |
| HRRIKAWLKKIKALARQLGVAA [MMI-0500] | 29 | 24 | 1 | 13 | 21 | 15 | 87 | 9 | 16 | 175 | 6 | 63 | 45 |
| KAFAKLAARLYRKALARQLGVAA [MMI-0400] | 78 | 53 | 78 | 54 | 19 | 47 | 92 | 58 | 52 | 164 | 79 | 89 | 26 |
| YARAAARQARAKALNRQLGVA [MMI-0200] | – | 57 | 98 | – | 75 | 67 | – | 88 | 98 | – | 101 | 88 | 76 |
